The values below come from US20120135923A1 (IPSEN PHARMA S A S, published 2012).

Bridge positions count the residues as written; N and C are the ends. Square brackets hold non-standard residues; d marks the D form. 1Nal = N[C@@H](Cc1cccc2ccccc12)C(=O)O; 2Nal = N[C@@H](Cc1ccc2ccccc2c1)C(=O)O; d2Nal = N[C@H](Cc1ccc2ccccc2c1)C(=O)O; Bta = N[C@@H](Cc1csc2ccccc12)C(=O)O; βAla = NCCC(=O)O

Common to all, as to test: [125I]-NDP-α-MSH competition, membranes
Assay [1] addresses T1, human melanocortin receptor subtype 5 (hMC5-R) (human, UniProt P33032 1-325).
T1 construct: whole, on cells; membranes of CHO-K1 cells
On the procedure:
(§1) Cellular membranes used for the in vitro receptor binding assays were obtained from transgenic CHO-K1 cells stably expressing hMC-R receptor subtypes 1, 3, 4 or 5. […] The pellets were resuspended in the same buffer and centrifuged at 50,000 g for 10 minutes at approximately 4° C. The washed pellets containing the cellular membranes were stored at approximately −80° C.
(§2) Competitive inhibition of [¹²⁵I](Tyr²)-(Nle⁴-D-Phe⁷)α-MSH ([¹²⁵I]-NDP-α-MSH, Amersham Biosciences®) binding was carried out in polypropylene 96 well plates. Cell membranes (1-10 μg protein/well) prepared as described above were incubated in 50 mM Tris-HCl at pH 7.4 containing 0.2% bovine serum albumin (BSA), 5 mM MgCl₂, 1 mM CaCl₂ and 0.1 mg/mL bacitracin, with increasing concentrations of the test compound and 0.1-0.3 nM […] for approximately 90-120 minutes at approximately 37° C. Bound [¹²⁵I]-NDP-α-MSH ligand was separated from free [¹²⁵I]-NDP-α-MSH by filtration through GF/C glass fiber filter plates (Unifilter®; Packard) presoaked with 0.1% (w/v) polyethylenimine (PEI), using a Packard Filtermate® harvester. Filters were washed three times with 50 mM Tris-HCl at pH 7.4 at a temperature of approximately 0-4° C. and then assayed for radioactivity using a Packard Topcount® scintillation counter. Binding data were analyzed by computer-assisted non-linear regression analysis (XL fit; IDBS).

The target in assay [2] is T2, human melanocortin receptor subtype 1 (hMC1-R) (human, UniProt Q01726 1-317).
T2 construct: whole, on cells; membranes of CHO-K1 cells
As for the experimental part: as §1, §2

Assay [3] addresses T3, human melanocortin receptor subtype 4 (hMC4-R) (human, UniProt P32245 1-332).
T3 construct: whole, on cells; membranes of CHO-K1 cells
On the procedure: as §1, §2

The target of assay [4] is T4, human melanocortin receptor subtype 3 (hMC3-R) (human, UniProt P41968 1-323).
T4 construct: whole, on cells; membranes of CHO-K1 cells
As for the experimental part:
as §1, §2

T2 sequence (Q01726 whole entry): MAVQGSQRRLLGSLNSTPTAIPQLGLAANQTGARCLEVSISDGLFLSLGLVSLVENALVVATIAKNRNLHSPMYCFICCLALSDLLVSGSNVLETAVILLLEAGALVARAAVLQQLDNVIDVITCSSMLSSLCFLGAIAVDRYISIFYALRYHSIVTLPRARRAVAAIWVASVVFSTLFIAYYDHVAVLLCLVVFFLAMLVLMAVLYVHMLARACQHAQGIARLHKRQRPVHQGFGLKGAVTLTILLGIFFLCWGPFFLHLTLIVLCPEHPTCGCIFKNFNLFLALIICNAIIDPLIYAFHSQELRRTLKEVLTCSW
T3 sequence (P32245 whole entry): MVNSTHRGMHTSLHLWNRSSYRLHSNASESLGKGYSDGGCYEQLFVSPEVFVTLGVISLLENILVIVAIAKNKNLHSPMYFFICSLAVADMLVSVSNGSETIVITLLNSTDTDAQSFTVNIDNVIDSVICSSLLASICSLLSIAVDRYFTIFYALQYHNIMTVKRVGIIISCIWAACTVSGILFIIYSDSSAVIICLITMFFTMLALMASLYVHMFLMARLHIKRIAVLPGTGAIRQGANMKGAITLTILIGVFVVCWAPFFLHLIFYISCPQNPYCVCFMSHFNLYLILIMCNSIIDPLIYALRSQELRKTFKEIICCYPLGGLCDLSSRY
T1 sequence (P33032 whole entry): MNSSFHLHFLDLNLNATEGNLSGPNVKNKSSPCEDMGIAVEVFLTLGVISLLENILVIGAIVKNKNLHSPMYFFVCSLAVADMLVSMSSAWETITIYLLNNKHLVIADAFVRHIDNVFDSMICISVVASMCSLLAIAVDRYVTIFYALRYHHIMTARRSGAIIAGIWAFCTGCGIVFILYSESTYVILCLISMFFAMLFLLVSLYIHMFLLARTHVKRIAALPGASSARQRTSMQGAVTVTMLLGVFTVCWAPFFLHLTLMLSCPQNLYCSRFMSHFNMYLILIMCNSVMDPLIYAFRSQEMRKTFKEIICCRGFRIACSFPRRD
T4 sequence (P41968 whole entry): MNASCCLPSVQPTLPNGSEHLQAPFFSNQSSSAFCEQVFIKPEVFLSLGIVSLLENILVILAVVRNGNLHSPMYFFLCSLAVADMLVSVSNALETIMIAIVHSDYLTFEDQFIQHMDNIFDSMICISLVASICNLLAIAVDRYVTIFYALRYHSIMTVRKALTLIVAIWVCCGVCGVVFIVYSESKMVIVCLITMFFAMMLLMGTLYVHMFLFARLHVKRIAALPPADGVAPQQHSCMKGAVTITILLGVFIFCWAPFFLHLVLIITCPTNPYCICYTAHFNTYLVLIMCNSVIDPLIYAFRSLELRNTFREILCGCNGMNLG

B1: Ac-c(Cys-Glu-His-D-2-Nal-Arg-Bal-Ala-Cys)-Pro-Pro-Lys-Asp-β-[…]NH2 (peptide)
peptide: Ac-CEH[d2Nal]R[Bta]ACPPKD[βAla]RRRRRQRRR-NH2
modifications: disulfide 1-8
By Ki is commonly meant a measure of affinity in units of concentration, obtained from inhibition or displacement. Low readings indicate a stronger hold on the target, high ones a looser hold on the target. Take B1: the inhibition constant Ki was determined as 38.3 nM in assay [1], 3.86 nM in assay [2], 0.192 nM in assay [3] and 4.97 nM in assay [4].

B2: Ac-c(Cys-Glu-His-D-2-Nal-Arg-2-Nal-Ala-Cys)-Pro-Pro-Lys-Asp-β-[…]NH2 (peptide)
peptide: Ac-CEH[d2Nal]R[2Nal]ACPPKD[βAla]RRKRRQRRR-NH2
modifications: disulfide 1-8
SMILES: CC(=O)N[C@H]1CSSC[C@@H](C(=O)N2CCC[C@H]2C(=O)N2CCC[C@H]2C(=O)N[C@@H](CCCCN)C(=O)N[C@@H](CC(=O)O)C(=O)NCCC(=O)N[C@@H](CCCNC(=N)N)C(=O)N[C@@H](CCCNC(=N)N)C(=O)N[C@@H](CCCCN)C(=O)N[C@@H](CCCNC(=N)N)C(=O)N[C@@H](CCCNC(=N)N)C(=O)N[C@@H](CCC(N)=O)C(=O)N[C@@H](CCCNC(=N)N)C(=O)N[C@@H](CCCNC(=N)N)C(=O)N[C@@H](CCCNC(=N)N)C(N)=O)NC(=O)[C@H](C)NC(=O)[C@H](Cc2ccc3ccccc3c2)NC(=O)[C@H](CCCNC(=N)N)NC(=O)[C@@H](Cc2ccc3ccccc3c2)NC(=O)[C@H](Cc2c[nH]cn2)NC(=O)[C@H](CCC(=O)O)NC1=O
On to B2, for which the inhibitory constant (Ki) in assay [1] is 11.3 nM; in assay [2], 3.41 nM; in assay [3], 0.549 nM; in assay [4], 0.975 nM.

B3: Ac-c(Cys-Glu-His-D-2-Nal-Arg-1-Nal-Ala-Cys)-Pro-Pro-Arg-Asp-β-[…]NH2 (peptide)
peptide: Ac-CEH[d2Nal]R[1Nal]ACPPRD[βAla]RRRRRQRRR-NH2
modifications: disulfide 1-8
SMILES: CC(=O)N[C@H]1CSSC[C@@H](C(=O)N2CCC[C@H]2C(=O)N2CCC[C@H]2C(=O)N[C@@H](CCCNC(=N)N)C(=O)N[C@@H](CC(=O)O)C(=O)NCCC(=O)N[C@@H](CCCNC(=N)N)C(=O)N[C@@H](CCCNC(=N)N)C(=O)N[C@@H](CCCNC(=N)N)C(=O)N[C@@H](CCCNC(=N)N)C(=O)N[C@@H](CCCNC(=N)N)C(=O)N[C@@H](CCC(N)=O)C(=O)N[C@@H](CCCNC(=N)N)C(=O)N[C@@H](CCCNC(=N)N)C(=O)N[C@@H](CCCNC(=N)N)C(N)=O)NC(=O)[C@H](C)NC(=O)[C@H](Cc2cccc3ccccc23)NC(=O)[C@H](CCCNC(=N)N)NC(=O)[C@@H](Cc2ccc3ccccc3c2)NC(=O)[C@H](Cc2c[nH]cn2)NC(=O)[C@H](CCC(=O)O)NC1=O
Turning to B3, the Ki in assay [1] amounted to 59 nM; in assay [2], 2.93 nM; in assay [3] it was 0.293 nM; in assay [4], 9.07 nM.

B4: Ac-c(Cys-Glu-His-D-2-Nal-Arg-2-Nal-Ala-Cys)-Pro-Pro-Lys-Asp-β-[…]NH2 (peptide)
peptide: Ac-CEH[d2Nal]R[2Nal]ACPPKD[βAla]RKRRRQRRR-NH2
modifications: disulfide 1-8
SMILES: CC(=O)N[C@H]1CSSC[C@@H](C(=O)N2CCC[C@H]2C(=O)N2CCC[C@H]2C(=O)N[C@@H](CCCCN)C(=O)N[C@@H](CC(=O)O)C(=O)NCCC(=O)N[C@@H](CCCNC(=N)N)C(=O)N[C@@H](CCCCN)C(=O)N[C@@H](CCCNC(=N)N)C(=O)N[C@@H](CCCNC(=N)N)C(=O)N[C@@H](CCCNC(=N)N)C(=O)N[C@@H](CCC(N)=O)C(=O)N[C@@H](CCCNC(=N)N)C(=O)N[C@@H](CCCNC(=N)N)C(=O)N[C@@H](CCCNC(=N)N)C(N)=O)NC(=O)[C@H](C)NC(=O)[C@H](Cc2ccc3ccccc3c2)NC(=O)[C@H](CCCNC(=N)N)NC(=O)[C@@H](Cc2ccc3ccccc3c2)NC(=O)[C@H](Cc2c[nH]cn2)NC(=O)[C@H](CCC(=O)O)NC1=O
Take B4: the Ki in assay [1] came to 2.77 nM; in assay [2], 2.25 nM; in assay [3], 0.303 nM; in assay [4], 0.62 nM.

B5: Ac-c(Cys-Glu-His-D-2-Nal-Arg-1-Nal-Ala-Cys)-Pro-Pro-Lys-Asp-β-[…]NH2 (peptide)
peptide: Ac-CEH[d2Nal]R[1Nal]ACPPKD[βAla]RRKRRQRRR-NH2
modifications: disulfide 1-8
SMILES: CC(=O)N[C@H]1CSSC[C@@H](C(=O)N2CCC[C@H]2C(=O)N2CCC[C@H]2C(=O)N[C@@H](CCCCN)C(=O)N[C@@H](CC(=O)O)C(=O)NCCC(=O)N[C@@H](CCCNC(=N)N)C(=O)N[C@@H](CCCNC(=N)N)C(=O)N[C@@H](CCCCN)C(=O)N[C@@H](CCCNC(=N)N)C(=O)N[C@@H](CCCNC(=N)N)C(=O)N[C@@H](CCC(N)=O)C(=O)N[C@@H](CCCNC(=N)N)C(=O)N[C@@H](CCCNC(=N)N)C(=O)N[C@@H](CCCNC(=N)N)C(N)=O)NC(=O)[C@H](C)NC(=O)[C@H](Cc2cccc3ccccc23)NC(=O)[C@H](CCCNC(=N)N)NC(=O)[C@@H](Cc2ccc3ccccc3c2)NC(=O)[C@H](Cc2c[nH]cn2)NC(=O)[C@H](CCC(=O)O)NC1=O
Regarding B5, the Ki worked out at 45.3 nM in assay [1], 4.62 nM in assay [2], 0.505 nM in assay [3] and 5.68 nM in assay [4].

B6: Ac-c(Cys-Glu-His-D-2-Nal-Arg-1-Nal-Ala-Cys)-Pro-Pro-Lys-Asp-β-[…]NH2 (peptide)
peptide: Ac-CEH[d2Nal]R[1Nal]ACPPKD[βAla]YGRRKRRQRRR-NH2
modifications: disulfide 1-8
SMILES: CC(=O)N[C@H]1CSSC[C@@H](C(=O)N2CCC[C@H]2C(=O)N2CCC[C@H]2C(=O)N[C@@H](CCCCN)C(=O)N[C@@H](CC(=O)O)C(=O)NCCC(=O)N[C@@H](Cc2ccc(O)cc2)C(=O)NCC(=O)N[C@@H](CCCNC(=N)N)C(=O)N[C@@H](CCCNC(=N)N)C(=O)N[C@@H](CCCCN)C(=O)N[C@@H](CCCNC(=N)N)C(=O)N[C@@H](CCCNC(=N)N)C(=O)N[C@@H](CCC(N)=O)C(=O)N[C@@H](CCCNC(=N)N)C(=O)N[C@@H](CCCNC(=N)N)C(=O)N[C@@H](CCCNC(=N)N)C(N)=O)NC(=O)[C@H](C)NC(=O)[C@H](Cc2cccc3ccccc23)NC(=O)[C@H](CCCNC(=N)N)NC(=O)[C@@H](Cc2ccc3ccccc3c2)NC(=O)[C@H](Cc2c[nH]cn2)NC(=O)[C@H](CCC(=O)O)NC1=O
In the case of B6, the Ki in assay [1] was 16.8 nM; in assay [2], 1.75 nM; in assay [3], 0.15 nM; in assay [4], 1.74 nM.

B7: Ac-c(Cys-Glu-His-D-2-Nal-Arg-Bal-Ala-Cys)-Pro-Pro-Lys-Asp-β-[…]NH2 (peptide)
peptide: Ac-CEH[d2Nal]R[Bta]ACPPKD[βAla]YGRRKRRQRRR-NH2
modifications: disulfide 1-8
SMILES: CC(=O)N[C@H]1CSSC[C@@H](C(=O)N2CCC[C@H]2C(=O)N2CCC[C@H]2C(=O)N[C@@H](CCCCN)C(=O)N[C@@H](CC(=O)O)C(=O)NCCC(=O)N[C@@H](Cc2ccc(O)cc2)C(=O)NCC(=O)N[C@@H](CCCNC(=N)N)C(=O)N[C@@H](CCCNC(=N)N)C(=O)N[C@@H](CCCCN)C(=O)N[C@@H](CCCNC(=N)N)C(=O)N[C@@H](CCCNC(=N)N)C(=O)N[C@@H](CCC(N)=O)C(=O)N[C@@H](CCCNC(=N)N)C(=O)N[C@@H](CCCNC(=N)N)C(=O)N[C@@H](CCCNC(=N)N)C(N)=O)NC(=O)[C@H](C)NC(=O)[C@H](Cc2csc3ccccc23)NC(=O)[C@H](CCCNC(=N)N)NC(=O)[C@@H](Cc2ccc3ccccc3c2)NC(=O)[C@H](Cc2c[nH]cn2)NC(=O)[C@H](CCC(=O)O)NC1=O
Consider B7, for which the Ki in assay [1] amounted to 16.4 nM; in assay [2], 2.24 nM; in assay [3], 0.437 nM; in assay [4], 1.57 nM.

B8: Ac-c(Cys-Glu-His-D-2-Nal-Arg-Bal-Ala-Cys)-Pro-Pro-Lys-Asp-β-[…]NH2 (peptide)
peptide: Ac-CEH[d2Nal]R[Bta]ACPPKD[βAla]YGRRRRRQRRR-NH2
modifications: disulfide 1-8
SMILES: CC(=O)N[C@H]1CSSC[C@@H](C(=O)N2CCC[C@H]2C(=O)N2CCC[C@H]2C(=O)N[C@@H](CCCCN)C(=O)N[C@@H](CC(=O)O)C(=O)NCCC(=O)N[C@@H](Cc2ccc(O)cc2)C(=O)NCC(=O)N[C@@H](CCCNC(=N)N)C(=O)N[C@@H](CCCNC(=N)N)C(=O)N[C@@H](CCCNC(=N)N)C(=O)N[C@@H](CCCNC(=N)N)C(=O)N[C@@H](CCCNC(=N)N)C(=O)N[C@@H](CCC(N)=O)C(=O)N[C@@H](CCCNC(=N)N)C(=O)N[C@@H](CCCNC(=N)N)C(=O)N[C@@H](CCCNC(=N)N)C(N)=O)NC(=O)[C@H](C)NC(=O)[C@H](Cc2csc3ccccc23)NC(=O)[C@H](CCCNC(=N)N)NC(=O)[C@@H](Cc2ccc3ccccc3c2)NC(=O)[C@H](Cc2c[nH]cn2)NC(=O)[C@H](CCC(=O)O)NC1=O
As for B8, the Ki worked out at 31.1 nM in assay [1], 3.07 nM in assay [2], 0.498 nM in assay [3] and 4.05 nM in assay [4].

B9: Ac-c(Cys-Glu-His-D-2-Nal-Arg-2-Nal-Ala-Cys)-Pro-Pro-Lys-Asp-β-[…]NH2 (peptide)
peptide: Ac-CEH[d2Nal]R[2Nal]ACPPKD[βAla]YGRKRRRQRRR-NH2
modifications: disulfide 1-8
SMILES: CC(=O)N[C@H]1CSSC[C@@H](C(=O)N2CCC[C@H]2C(=O)N2CCC[C@H]2C(=O)N[C@@H](CCCCN)C(=O)N[C@@H](CC(=O)O)C(=O)NCCC(=O)N[C@@H](Cc2ccc(O)cc2)C(=O)NCC(=O)N[C@@H](CCCNC(=N)N)C(=O)N[C@@H](CCCCN)C(=O)N[C@@H](CCCNC(=N)N)C(=O)N[C@@H](CCCNC(=N)N)C(=O)N[C@@H](CCCNC(=N)N)C(=O)N[C@@H](CCC(N)=O)C(=O)N[C@@H](CCCNC(=N)N)C(=O)N[C@@H](CCCNC(=N)N)C(=O)N[C@@H](CCCNC(=N)N)C(N)=O)NC(=O)[C@H](C)NC(=O)[C@H](Cc2ccc3ccccc3c2)NC(=O)[C@H](CCCNC(=N)N)NC(=O)[C@@H](Cc2ccc3ccccc3c2)NC(=O)[C@H](Cc2c[nH]cn2)NC(=O)[C@H](CCC(=O)O)NC1=O
Turning to B9, the Ki in assay [1] was 3.13 nM; in assay [2], 1.49 nM; in assay [3] it was 0.865 nM; in assay [4], 0.604 nM.
